Results on one protein are retold here after ChEMBL document CHEMBL2073902, “A functional study on polymorphism of the ATP-binding cassette transporter ABCG2: critical role of arginine-482 in methotrexate transport” (Biochem J, 2003).

Substrate in this data set: CN(Cc1cnc2nc(N)nc(N)c2n1)c1ccc(C(=O)N[C@@H](CCC(=O)O)C(=O)O)cc1
Nature of the data set: TP_TRANSPORTER: uptake (vesicle) in membrane vesicle from ABCG2-expressing HEK-293 cells. It is filed as functional, cell membranes, HEK293.

B1: Broad substrate specificity ATP-binding cassette transporter ABCG2 (Homo sapiens) (protein)
chain: MSSSNVEVFIPVSQGNTNGFPATASNDLKAFTEGAVLSFHNICYRVKLKSGFLPCRKPVEKEILSNINGIMKPGLNAILGPTGGGKSSLLDVLAARKDPSGLSGDVLINGAPRPANFKCNSGYVVQDDVVMGTLTVRENLQFSAALRLATTMTNHEKNERINRVIQELGLDKVADSKVGTQFIRGVSGGERKRTSIGMELITDPSILFLDEPTTGLDSSTANAVLLLLKRMSKQGRTIIFSIHQPRYSIFKLFDSLTLLASGRLMFHGPAQEALGYFESAGYHCEAYNNPADFFLDIINGDSTAVALNREEDFKATEIIEPSKQDKPLIEKLAEIYVNSSFYKETKAELHQLSGGEKKKKITVFKEISYTTSFCHQLRWVSKRSFKNLLGNPQASIAQIIVTVVLGLVIGAIYFGLKNDSTGIQNRAGVLFFLTTNQCFSSVSAVELFVVEKKLFIHEYISGYYRVSSYFLGKLLSDLLPMRMLPSIIFTCIVYFMLGLKPKADAFFVMMFTLMMVAYSASSMALAIAAGQSVVSVATLLMTICFVFMMIFSGLLVNLTTIASWLSWLQYFSIPRYGFTALQHNEFLGQNFCPGLNATGNNPCNYATCTGEEYLVKQGIDLSPWGLWKNHVALACMIVIFLTIAYLKLLFLKKYS
What is called Km is the substrate concentration at which the rate is half of its maximum. With B1, the Km is 5.7 mM.
